Target: human GLP-2 Receptor (human) (UniProt O95838)
Sequence of UniProt O95838 (O95838 whole entry): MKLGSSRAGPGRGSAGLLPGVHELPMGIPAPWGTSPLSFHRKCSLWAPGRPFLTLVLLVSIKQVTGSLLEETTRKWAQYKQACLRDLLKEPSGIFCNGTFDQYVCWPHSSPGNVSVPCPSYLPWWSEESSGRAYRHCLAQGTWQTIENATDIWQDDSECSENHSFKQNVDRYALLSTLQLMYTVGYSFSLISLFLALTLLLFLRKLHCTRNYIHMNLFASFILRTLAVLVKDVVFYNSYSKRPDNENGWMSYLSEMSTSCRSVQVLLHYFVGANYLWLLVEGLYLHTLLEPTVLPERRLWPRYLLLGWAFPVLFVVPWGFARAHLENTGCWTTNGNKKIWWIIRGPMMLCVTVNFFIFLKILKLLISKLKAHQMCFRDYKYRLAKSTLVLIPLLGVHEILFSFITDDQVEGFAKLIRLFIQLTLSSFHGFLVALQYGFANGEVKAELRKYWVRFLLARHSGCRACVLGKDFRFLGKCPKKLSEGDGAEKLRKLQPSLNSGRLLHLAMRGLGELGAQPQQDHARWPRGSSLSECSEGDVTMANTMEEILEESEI

B1: GLP2-2G-XTEN fusion protein (protein)
chain: HGDGSFSDEMNTILDNLAARDFINWLIQTKITDGGSPAGSPTSTEEGTSESATPESGPGTSTEPSEGSAPGSPAGSPTSTEEGTSTEPSEGSAPGTSTEPSEGSAPGTSESATPESGPGSEPATSGSETPGSEPATSGSETPGSPAGSPTSTEEGTSESATPESGPGTSTEPSEGSAPGTSTEPSEGSAPGSPAGSPTSTEEGTSTEPSEGSAPGTSTEPSEGSAPGTSESATPESGPGTSTEPSEGSAPGTSESATPESGPGSEPATSGSETPGTSTEPSEGSAPGTSTEPSEGSAPGTSESATPESGPGTSESATPESGPGSPAGSPTSTEEGTSESATPESGPGSEPATSGSETPGTSESATPESGPGTSTEPSEGSAPGTSTEPSEGSAPGTSTEPSEGSAPGTSTEPSEGSAPGTSTEPSEGSAPGTSTEPSEGSAPGSPAGSPTSTEEGTSTEPSEGSAPGTSESATPESGPGSEPATSGSETPGTSESATPESGPGSEPATSGSETPGTSESATPESGPGTSTEPSEGSAPGTSESATPESGPGSPAGSPTSTEEGSPAGSPTSTEEGSPAGSPTSTEEGTSESATPESGPGTSTEPSEGSAPGTSESATPESGPGSEPATSGSETPGTSESATPESGPGSEPATSGSETPGTSESATPESGPGTSTEPSEGSAPGSPAGSPTSTEEGTSESATPESGPGSEPATSGSETPGTSESATPESGPGSPAGSPTSTEEGSPAGSPTSTEEGTSTEPSEGSAPGTSESATPESGPGTSESATPESGPGTSESATPESGPGSEPATSGSETPGSEPATSGSETPGSPAGSPTSTEEGTSTEPSEGSAPGTSTEPSEGSAPGSEPATSGSETPGTSESATPESGPGTSTEPSEGSAPG
  calcium flux (FLIPR) in a human GLP-2 receptor-expressing Chem-11 cell line, serial dilutions, EC50 of activation: 380 nM
